System: Factor X
Experiment: ability to functionally cleave Factor X (reaction rate Vmax) of D44 mutants
Format: biochemical
Details: D44 substitution study
Description: The lysate was prepared by treating cell pellets with 15 mM octyl-glucopyranoside for 15 minutes at 37C. followed by a 3-fold dilution. […] Formed TF-VIIa complexes were quantified with substrate factor X added at 100 nM for a fixed time. Samples were then removed from the reaction and quenched in 100 mM EDTA in TBS (20 mM Tris-HCl, 140 mM NaCl, pH 7.4). The formation of Xa in the quenched reaction was determined with the chromogenic peptidyl substrate, Spectrozyme FXa (1.2 mM). The rate of Spectrozyme hydrolysis, measured as the increase in absorbance (mOD/min), was determined at ambient temperature in a kinetic plate reader (Molecular Devices, Mountain View, Calif.) followed by quenching and monitoring of product factor Xa formation using the Spectrozyme FXa.
Additional mhuTF mutants were prepared based on amino acid residue substitutions at amino acid residue position number D44.

B1: R44: mhuTF with arginine substituted in place of D44 (protein, UniProt P13726 33-251, looked up, variant D44R)
extracellular domain: SGTTNTVAAYNLTWKSTNFKTILEWEPKPVNQVYTVQISTKSGRWKSKCFYTTDTECDLTDEIVKDVKQTYLARVFSYPAGNVESTGSAGEPLYENSPEFTPYLETNLGQPTIQSFEQVGTKVNVTVEDERTLVRRNNTFLSLRDVFGKDLIYTLYYWKSSSSGKKTAKTNTNEFLIDVDKGENYCFSVQAVIPSRTVNRKSTDSPVECMGQEKGEFRE
modifications: extracellular domain
notes: mhuTF with arginine substituted in place of D44
loss of function (specific functional activity, Vmax) compared to wild-type: 75%
reaction rate (Vmax) (Factor X cleavage): ~0.5 per second

— patent publication US5994296A, “Human mutant tissue factor compositions useful as tissue factor antagonists” (priority 1998, dated 1999)
